Experimental data as given in paper PMC5484534 (Molecular cell, 2017).

What was measured:
U2OS Bmal1-dLuc cells = assay: Circadian period of U2OS Bmal1-dLuc cells with inhibitors; type: cell-based, human; details: 0.3% DMSO, n = 3 replicates with 2 independent assays
[1] = tested on: W624-P625 imide bond of BMAL1 TAD; assay: 15N-1H ZZ-exchange NMR kinetics of TAD switch isomerization; parameters: species or system mouse
[2] = tested on: Bmal1^−/−; Per2^Luc fibroblasts complemented with WT or trans-locked Bmal1; assay: CsA-induced period change in complemented Bmal1-/-; type: cell-based, mouse; details: particularly at 10 μM CsA
cyclophilin family = details: active site; ref Davis et al., 2010; cited from earlier work
BMAL1 = details: screen for interacting partners; ref Lipton et al., 2015; cited from earlier work
MLL1 = details: ref Wang et al., 2010; cited from earlier work
BMAL1 TAD = assay: Cyclophilin acceleration of TAD switch isomerization by 15N-1H ZZ-exchange NMR; type: biochemical, mouse; details: room temperature (22.68°C), 400 μM 15N BMAL1 TAD + 100 μM cyclophilin, 20 mM HEPES pH 7.0 (pH 7.5 for His6GST-PPIL3), 100 mM NaCl, 2 mM TCEP
[3] = tested on: Bmal1^−/−; Per2^Luc mouse fibroblasts; assay: Circadian period of complemented Bmal1-/-; type: cell-based; details: stable complementation, 37°C, dexamethasone-synchronized
[4] = 25 °C, extrapolated from Eyring plot
[5] = 37 °C, extrapolated from Eyring plot
[6] = 55 °C, 400 μM 15N BMAL1 TAD, 10 mM MES pH 6.5, 50 mM NaCl, 10% D2O
[7] = 60 °C, 400 μM 15N BMAL1 TAD, 10 mM MES pH 6.5, 50 mM NaCl, 10% D2O
[8] = 65 °C, 400 μM 15N BMAL1 TAD, 10 mM MES pH 6.5, 50 mM NaCl, 10% D2O

CC1(C)[C@H](C(=O)O[C@H](C#N)c2cccc(Oc3ccccc3)c2)[C@@H]1C=C(Br)Br [Deltamethrin]
effect on circadian period (U2OS Bmal1-dLuc cells): did not elicit a change in period

BMAL1 TAD: Mouse BMAL1 TAD (residues 579–626), recombinant
overall exchange lifetime ([1]; 25 °C): approximately 10 minutes
Rate of isomerization cis➔trans [1, 4]: 0.00458 s⁻¹
Rate of isomerization trans➔cis [1, 4]: 0.00264 s⁻¹
Time per isomerization event cis➔trans [1, 4]: 218.34 s
Time per isomerization event trans➔cis [1, 4]: 378.78 s
detection of isomerization by ZZ exchange ([1]; 25 °C, in words): too slow to be detected at room temperature
Rate of isomerization cis➔trans [1, 5]: 0.0233 s⁻¹
Rate of isomerization trans➔cis [1, 5]: 0.0135 s⁻¹
Time per isomerization event cis➔trans [1, 5]: 42.92 s
Time per isomerization event trans➔cis [1, 5]: 74.07 s
Time per isomerization event cis➔trans ([1]; 55 °C): 4.65 s
Time per isomerization event trans➔cis ([1]; 55 °C): 8.06 s
Rate of isomerization cis➔trans [1, 6]: 0.215 s⁻¹
Rate of isomerization trans➔cis [1, 6]: 0.124 s⁻¹
Time per isomerization event cis➔trans ([1]; 60 °C): 2.62 s
Time per isomerization event trans➔cis ([1]; 60 °C): 4.55 s
Rate of isomerization cis➔trans [1, 7]: 0.382 s⁻¹
Rate of isomerization trans➔cis [1, 7]: 0.22 s⁻¹
Time per isomerization event cis➔trans ([1]; 65 °C): 1.50 s
Time per isomerization event trans➔cis ([1]; 65 °C): 2.60 s
Rate of isomerization cis➔trans [1, 8]: 0.667 s⁻¹
Rate of isomerization trans➔cis [1, 8]: 0.384 s⁻¹
temperature at which exchange cross peaks first appeared ([1]; ZZ exchange at increasing temperature): 55 °C

Cyclosporin A [CsA]
switch-independent effect on period [2]: Switch-independent changes in period
affinity for cyclophilin family (cyclophilin family): 5 to 500 nM
effect on circadian period (U2OS Bmal1-dLuc cells): dose-dependent lengthening of circadian period with low doses

PPIA: peptidyl prolyl isomerase A, human cyclophilin
co-immunoprecipitation with BMAL1 (BMAL1): co-immunoprecipitated with BMAL1

PPIE: human nuclear cyclophilin [reference compound]
binding to MLL1 (MLL1): binds to the histone methyltransferase MLL1 to modulate its activity
activity on TAD switch isomerization, in words (BMAL1 TAD): significantly increased the rate of isomerization in BMAL1

PPIF: mitochondrial cyclophilin [reference compound]
activity on TAD switch isomerization, in words (BMAL1 TAD): at least as active on the TAD as the top-ranked nuclear cyclophilins

PPIH: human nuclear cyclophilin [reference compound]
activity on TAD switch isomerization, in words (BMAL1 TAD): significantly increased the rate of isomerization in BMAL1

wild type Bmal1: Flag-tagged mouse Bmal1 stably complemented in cells
circadian period [3]: approximately 23 hours
